# Data published in the supplement of paper PMC12042874.
# ± gives the uncertainty stated by the source.
# Experiment: amyloid nucleation score (Sup35N fusion, yeast selection) (log enrichment); library NNK2; higher = more nucleation; inactive = no reads after selection
# Procedure, shortened: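 The nucleation score, computed with DiMSum, is the log enrichment of output over input reads, centred on the mode score of non-aggregating sequences. Sequences with under 100 input reads were dropped. Reads were generated by Illumina sequencing of plasmid inserts from psi-negative yeast with Sup35N fused to peptides of 20 random codons, induced with 100 μM copper sulfate for 24 hours and grown 7 days at 30°C on medium lacking adenine and uracil.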
row,Substance,amyloid nucleation score
1,IFPGILH,-1.83 ± 0.63
2,PEWFGR,0.588 ± 0.23
3,GVCPTVVCPHYIDVRML,0.16 ± 0.55
4,TAHGAQWVPDWWEPVTSAYW,1.21 ± 0.21
5,NSGSYTSSFNDLVDTLSVLS,inactive
6,KSVRIWPSVSAGTRRLKQS,inactive
7,MAAVSETHPGAEGSNRVVSE,3.06 ± 0.07
8,SLPGLGFLRLFFQ,0.089 ± 0.55
9,LVSFGPLMDQGSCIALHSRR,0.162 ± 0.31
10,VRYDGSKAFEVYMNQIENGS,-0.905 ± 0.33
11,VERFLPVCFIPLISKRWTMY,0.283 ± 0.54
12,WGTCMCRKWASHFDREC,2.55 ± 0.17
13,FLWKRVVLSREEMAMDTTGS,5.47 ± 0.066
14,STTHHARRFVSHESACLGAV,1.11 ± 0.17
15,SEGLG,3.53 ± 0.063
16,IGQRLCYCVCWRSSCGVVWQ,1.46 ± 0.36
17,YRTCNIDGL,inactive
18,CDFMYRLMSTYTHTFLVSLR,1.41 ± 0.14
19,PGIMNVPS,0.456 ± 0.32
20,IFLQNTSSEWLLSARDRLRY,0.157 ± 1
21,LFVLLSDKTHSYSYAECQPM,3.65 ± 0.052
22,CVSEDDCLDYPKV,2.29 ± 0.13

row,Substance,amyloid nucleation score
1,LSFFSLSIQSCMHGSLKIDS,-0.294 ± 1.1
2,MLRLFQYFLGTNFWGHQGFS,-0.724 ± 1.1
3,FYKNAP,-1.06 ± 1.1
4,NRDVRCGVRPQHVCFQ,inactive
5,ECSHQIL,-0.179 ± 0.63
6,GVTPYCKRHV,-1.14 ± 0.78
7,YNVTYLLRCFSILVSRVLKV,inactive
8,VLLQNYAMVAFT,-1.07 ± 0.45
9,ISFYQWRPWNFLRYRRGNAH,0.237 ± 0.31
10,MRRSLFMCILVYDSWLYFSV,3.15 ± 0.17
11,VRDLTCSNNITILFMHW,6.13 ± 0.079
12,AGFTLYFGMTRNYQYSDCSP,4.23 ± 0.066
13,ALGHIQLKLHCWDYGKRCAS,0.623 ± 0.25
14,NCVNPDYGLLQQLSRYLVVC,-0.764 ± 0.64
15,KTTHDCGSAHVGL,-0.504 ± 0.63
16,PGSVWFSLTSMHE,0.623 ± 0.66
17,AWACYSECQDIRGNYSEVVL,-0.671 ± 0.48
18,MSFKDNYQPK,-0.707 ± 0.76
19,SWATLRVCNIFCMITCSYFM,1.51 ± 0.15
20,HAACCASNLLWGRFFWSCAD,2.74 ± 0.084
21,YSGWFFCNFISLWV,6.529 ± 0.057
22,SCRDNIRGQRLGHHAGLWSR,0.479 ± 0.2

row,Substance,amyloid nucleation score
1,GNLVC,0.821 ± 0.19
2,WHFSRSWDPKFWRRAHSWWE,0.276 ± 0.5
3,MCWIVTFTRLCWLMFNSERC,inactive
4,VWMYITSW,-1.12 ± 0.55
5,IVLSDSISQAFWASICHQGF,-1.55 ± 1.1
6,YWNDSSRYGQVGVEYC,0.49 ± 0.8
7,LYLMSHTGFLSNTHIRLAPR,-0.291 ± 1.1
8,QFASISICYKSSIPNDCNDV,1.12 ± 0.2
9,DLARPDFKLIYSYGSNSPGS,-1.38 ± 0.64
10,INVSVFVVFRNRQRLKC,7.363 ± 0.058
11,ASGDGLNFWPFRSPTDAQRA,0.775 ± 0.5
12,SSYGIFVVGMLGSCRVQSRF,3.79 ± 0.041
13,YRDNCMRNIENSVT,-0.802 ± 0.54
14,FQVSCVHQVPRAAGVADGAV,0.375 ± 0.21
15,LQHYDLGSCSCRWVLVTSDK,0.584 ± 0.22
16,GRNPVFWWQVLVATSRLNGQ,1.05 ± 0.32
17,MVIQHIDRPDYWISWGHNKG,5.112 ± 0.048
18,YTSGSTGRDLLPNMKRGSVV,4.36 ± 0.12
19,YFRAYWTCSEC,inactive
20,PCTMDYGVPRT,0.585 ± 0.66
21,FVFYSEEGLGHDLSNFTGGI,inactive
22,YIYETTLCYNTIPGL,-0.848 ± 0.29

row,Substance,amyloid nucleation score
1,TTRYANWNMNINLGL,6.613 ± 0.046
2,WATFRPD,0.31 ± 0.54
3,EESSTKGMTG,-0.014 ± 0.26
4,RVSESLPSTD,-0.219 ± 0.47
5,LNHKDICFARNLVRVREGHN,0.809 ± 0.38
6,KTDRLTKGTATFKRMTEI,inactive
7,HLMCESGRVFWKD,0.015 ± 0.31
8,FRGSAFS,7.173 ± 0.051
9,YYLSFCVSNAGAPGMDLMGQ,0.328 ± 0.65
10,SAHLYALGNSRHFIYVPVEL,inactive
11,RMLCSHINYLIVGMG,-0.061 ± 0.28
12,GLTVHTVWLA,0.189 ± 0.4
13,LNFIRCYVSPCVSFLSLYII,inactive
14,EMVQVVSAQGKTKL,8.461 ± 0.061
15,IRSKSWVVDTQFRPIDSLLV,0.646 ± 0.49
16,VRSLN,0.058 ± 0.6
17,QIYCVSPLSRHWYFARYGVT,0.78 ± 0.32
18,IFNRSASYLAFFHKG,4.3 ± 0.079
19,RIRCIVGSVPCMAASKHDGR,0.783 ± 0.22
20,VVYPCFSIMLQMEVLYIVFI,1.33 ± 0.33
21,KRSVAVFRRCV,0.817 ± 0.44
